The record followed here is patent US20220363736A1 (ICAHN SCHOOL OF MEDICINE AT MOUNT SINAI, published 2022).

Where two headings read alike, the source gives them in different places.

Assay [1] deals with neuraminidase of wild type B/Malaysia/2506/04 virus (influenza B virus B/Malaysia/2506/04).
The target of assay [2] is recombinant neuraminidase (rNA) from B/Malaysia/2506/04 (influenza B virus B/Malaysia/2506/04).
Assay [3] has the same target. The source holds these as a separate data set.
Assay [4] has as its target neuraminidase of the ancestral B/Lee/40 strain (influenza B virus B/Lee/40, UniProt P03474 1-466). Kind of assay: ELISA on purified whole virus.
In assay [5] the target is neuraminidase of wild type B/Malaysia/2506/04 virus (influenza B virus B/Malaysia/2506/04). The source holds these as a separate data set.
Assay [6] deals with recombinant neuraminidase (rNA) from B/Florida/04/2006 (influenza B virus B/Florida/04/06).
For assay [7], the target named is neuraminidase of wild type B/Malaysia/2506/04 virus (influenza B virus B/Malaysia/2506/04). This is another data set of the same source.
The target in assay [8] is recombinant neuraminidase (rNA) from B/Florida/04/2006 (influenza B virus B/Florida/04/06). The source holds these as a separate data set.

neuraminidase of the ancestral B/Lee/40 strain, sequence (P03474 whole entry): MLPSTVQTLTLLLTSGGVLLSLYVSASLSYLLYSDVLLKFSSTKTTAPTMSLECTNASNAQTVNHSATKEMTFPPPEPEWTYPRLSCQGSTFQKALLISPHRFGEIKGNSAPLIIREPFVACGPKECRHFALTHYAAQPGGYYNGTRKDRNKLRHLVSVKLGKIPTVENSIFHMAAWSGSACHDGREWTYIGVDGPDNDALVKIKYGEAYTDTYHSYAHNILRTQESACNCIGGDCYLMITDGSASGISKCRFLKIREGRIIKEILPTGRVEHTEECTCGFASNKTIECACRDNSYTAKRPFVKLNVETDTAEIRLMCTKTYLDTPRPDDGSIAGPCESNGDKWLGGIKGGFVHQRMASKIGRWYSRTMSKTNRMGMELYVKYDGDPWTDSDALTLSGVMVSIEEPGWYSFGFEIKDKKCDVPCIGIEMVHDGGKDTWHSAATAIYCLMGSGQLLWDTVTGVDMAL

B1: recombinantly expressed 4F11 IgG2b (antibody, V domains shown)
VH: DVKLVESGGDLVKPGGSLKLSCAASGFTFSAYSMSWVRQTPERRLEWVATINTGGSFTYYPDSVKGRFTISRDNAKNTLYLQMSSLKSEDTAMYFCTRVSDYGNSAYFPYWGQGTLVIVFA
VL: QVVLTQSPALISASPGEKVTMTCSASSNVNYMSWYQQRPRSSPKPWIYLTSKLASGVPPRFSGSGSGTSYSLTISSMEAEDVATYYCQQWSSDPQTFGGGTKVEIK
The molecule B1 yielded an IC50 (read off the curve) in assay [1] of 0.2 µg/mL. For the same molecule, the EC50 (read off the curve) in assay [2] came to 0.06 µg/mL. The Kd in assay [3] amounted to 0.00298 nM.

B2: recombinantly expressed 4F11 polymeric IgA (antibody, V domains shown)
VH: DVKLVESGGDLVKPGGSLKLSCAASGFTFSAYSMSWVRQTPERRLEWVATINTGGSFTYYPDSVKGRFTISRDNAKNTLYLQMSSLKSEDTAMYFCTRVSDYGNSAYFPYWGQGTLVIVFA
VL: QVVLTQSPALISASPGEKVTMTCSASSNVNYMSWYQQRPRSSPKPWIYLTSKLASGVPPRFSGSGSGTSYSLTISSMEAEDVATYYCQQWSSDPQTFGGGTKVEIK
As for B2, the Kd in assay [3] is 0.00242 nM.

B3: recombinantly expressed 4F11 IgG2a (antibody, V domains shown)
VH: DVKLVESGGDLVKPGGSLKLSCAASGFTFSAYSMSWVRQTPERRLEWVATINTGGSFTYYPDSVKGRFTISRDNAKNTLYLQMSSLKSEDTAMYFCTRVSDYGNSAYFPYWGQGTLVIVFA
VL: QVVLTQSPALISASPGEKVTMTCSASSNVNYMSWYQQRPRSSPKPWIYLTSKLASGVPPRFSGSGSGTSYSLTISSMEAEDVATYYCQQWSSDPQTFGGGTKVEIK
In the case of B3, the Kd in assay [3] stood at 0.00336 nM.

B4: recombinantly expressed 4F11 monomeric IgA (antibody, V domains shown)
VH: DVKLVESGGDLVKPGGSLKLSCAASGFTFSAYSMSWVRQTPERRLEWVATINTGGSFTYYPDSVKGRFTISRDNAKNTLYLQMSSLKSEDTAMYFCTRVSDYGNSAYFPYWGQGTLVIVFA
VL: QVVLTQSPALISASPGEKVTMTCSASSNVNYMSWYQQRPRSSPKPWIYLTSKLASGVPPRFSGSGSGTSYSLTISSMEAEDVATYYCQQWSSDPQTFGGGTKVEIK
For the molecule B4, in assay [3], the Kd was 0.00472 nM.

B5: recombinantly expressed 4F11 IgG1 (antibody, V domains shown)
VH: DVKLVESGGDLVKPGGSLKLSCAASGFTFSAYSMSWVRQTPERRLEWVATINTGGSFTYYPDSVKGRFTISRDNAKNTLYLQMSSLKSEDTAMYFCTRVSDYGNSAYFPYWGQGTLVIVFA
VL: QVVLTQSPALISASPGEKVTMTCSASSNVNYMSWYQQRPRSSPKPWIYLTSKLASGVPPRFSGSGSGTSYSLTISSMEAEDVATYYCQQWSSDPQTFGGGTKVEIK
As to B5, the Kd in assay [3] was determined as 0.00891 nM.

B6: recombinantly expressed 4F11 IgM (antibody, V domains shown)
VH: DVKLVESGGDLVKPGGSLKLSCAASGFTFSAYSMSWVRQTPERRLEWVATINTGGSFTYYPDSVKGRFTISRDNAKNTLYLQMSSLKSEDTAMYFCTRVSDYGNSAYFPYWGQGTLVIVFA
VL: QVVLTQSPALISASPGEKVTMTCSASSNVNYMSWYQQRPRSSPKPWIYLTSKLASGVPPRFSGSGSGTSYSLTISSMEAEDVATYYCQQWSSDPQTFGGGTKVEIK
Consider B6, for which, in assay [3], the Kd turned out to be 0.00511 nM.

B7: monoclonal antibody 4F11 (hybridoma-produced, murine IgG2b) (antibody, V domains shown)
VH: DVKLVESGGDLVKPGGSLKLSCAASGFTFSAYSMSWVRQTPERRLEWVATINTGGSFTYYPDSVKGRFTISRDNAKNTLYLQMSSLKSEDTAMYFCTRVSDYGNSAYFPYWGQGTLVIVFA
VL: QVVLTQSPALISASPGEKVTMTCSASSNVNYMSWYQQRPRSSPKPWIYLTSKLASGVPPRFSGSGSGTSYSLTISSMEAEDVATYYCQQWSSDPQTFGGGTKVEIK
With B7, the binding result in assay [4] was “binds”. In assay [1], this molecule gave an IC50 (read off the curve) of 0.2 µg/mL. For the same molecule, in assay [2], the EC50 (read off the curve) was determined as 0.05 µg/mL.

B8: monoclonal antibody 4B2 (hybridoma-produced, murine IgG2a) (antibody, V domains shown)
VH: QIQLVQSGPELKKPGETVKISCKASGFTFTDYPMHWVKQAPGKSLKWMGWINTETEEPTYSDDFKGRSPLSLETSASTTYLQINNLKNEDTSTYFCVRSGYYYGSTYAWFGYWGQGTLVTVSA
VL: DVVMTQIPLSLPVSLGDQASISCRSSQSLIHTNGDTFLHWYLQKPGQSPKLLIYKVSNRFSGVPDRFTGGGSGTDFTLKISRVEAEDLGIYFCSQSALFPYTFGGGTNLEIK
For B8, the binding result in assay [4] was “binds”.

B9: monoclonal antibody 3G1 (hybridoma-produced, murine IgG2a) (antibody, V domains shown)
VH: QVQLQQSGAELMKPGASVKISCKATGYKFTSYWIGWVKQRPGHGLEWCGEIFPGSGSINYNEKFKGKATFTADTSSNTAYLQLTSLTSEDSAVYYCARGEDYYGSSYGAMDYWGQGTSLTVSS
VL: DVQITQSPSYLAASPGETITINCRASKSISKYVAWYQEKPGRTNKVLIYSGSILSFGNPSRFSGSGSGTDFTLTISSLEPEDFAMYYCQQHNEYPWTFGGGTKLEIK
With B9, in assay [4], the binding result was “binds”. In assay [5], this molecule displayed an IC50 (read off the curve) of 3 µg/mL.

B10: monoclonal antibody 1F2 (hybridoma-produced, murine IgG2a) (antibody, V domains shown)
VH: QVHLQQSGPEVARPGASVKLSCKASGYTFTDYYLNWVKQRPRQGLEWIGQIHPGSTNTYYNEKFKGKATLTADKSSSTAYMQLSSLTFEDSAVYFCAISLGDGYYVYAMVCWGQGTAVTVSS
VL: DIVMTQSQKFMSTSVGDRVSVTCKASQNVVTNVVWYQQKPGQSPKPLIYSASYRYSGVPDRFTGSGSGTDFTLTISNVQSEDLAEYCCQQYHSYPFTFGSGTKLEVK
Consider B10, for which the binding result in assay [4] is recorded as “binds”. Further, the 50% effective concentration (EC50 (read off the curve)) in assay [6] is 0.03 µg/mL. In addition, the IC50 (read off the curve) in assay [7] amounted to 0.09 µg/mL; in assay [5], 2 µg/mL.

B11: recombinantly expressed 1F2 polymeric IgA (antibody, V domains shown)
VH: QVHLQQSGPEVARPGASVKLSCKASGYTFTDYYLNWVKQRPRQGLEWIGQIHPGSTNTYYNEKFKGKATLTADKSSSTAYMQLSSLTFEDSAVYFCAISLGDGYYVYAMVCWGQGTAVTVSS
VL: DIVMTQSQKFMSTSVGDRVSVTCKASQNVVTNVVWYQQKPGQSPKPLIYSASYRYSGVPDRFTGSGSGTDFTLTISNVQSEDLAEYCCQQYHSYPFTFGSGTKLEVK
For B11, the dissociation constant Kd in assay [3] was found to be 0.28 nM.

B12: 1F2 Fab (Fab, V domains shown)
VH: QVHLQQSGPEVARPGASVKLSCKASGYTFTDYYLNWVKQRPRQGLEWIGQIHPGSTNTYYNEKFKGKATLTADKSSSTAYMQLSSLTFEDSAVYFCAISLGDGYYVYAMVCWGQGTAVTVSS
VL: DIVMTQSQKFMSTSVGDRVSVTCKASQNVVTNVVWYQQKPGQSPKPLIYSASYRYSGVPDRFTGSGSGTDFTLTISNVQSEDLAEYCCQQYHSYPFTFGSGTKLEVK
As to B12, in assay [5], the IC50 (read off the curve) stood at 3 µg/mL.

B13: recombinantly expressed 1F2 IgG2b (antibody, V domains shown)
VH: QVHLQQSGPEVARPGASVKLSCKASGYTFTDYYLNWVKQRPRQGLEWIGQIHPGSTNTYYNEKFKGKATLTADKSSSTAYMQLSSLTFEDSAVYFCAISLGDGYYVYAMVCWGQGTAVTVSS
VL: DIVMTQSQKFMSTSVGDRVSVTCKASQNVVTNVVWYQQKPGQSPKPLIYSASYRYSGVPDRFTGSGSGTDFTLTISNVQSEDLAEYCCQQYHSYPFTFGSGTKLEVK
Take B13: the concentration for a half-maximal effect (EC50 (read off the curve)) in assay [6] is 0.03 µg/mL. In assay [3], the Kd is 1.16 nM. The molecule also returned an IC50 (read off the curve) in assay [7] of 0.3 µg/mL.

B14: recombinantly expressed 1F2 monomeric IgA (antibody, V domains shown)
VH: QVHLQQSGPEVARPGASVKLSCKASGYTFTDYYLNWVKQRPRQGLEWIGQIHPGSTNTYYNEKFKGKATLTADKSSSTAYMQLSSLTFEDSAVYFCAISLGDGYYVYAMVCWGQGTAVTVSS
VL: DIVMTQSQKFMSTSVGDRVSVTCKASQNVVTNVVWYQQKPGQSPKPLIYSASYRYSGVPDRFTGSGSGTDFTLTISNVQSEDLAEYCCQQYHSYPFTFGSGTKLEVK
In the case of B14, the dissociation constant (Kd) in assay [3] was 0.958 nM.

B15: recombinantly expressed 1F2 IgG2a (antibody, V domains shown)
VH: QVHLQQSGPEVARPGASVKLSCKASGYTFTDYYLNWVKQRPRQGLEWIGQIHPGSTNTYYNEKFKGKATLTADKSSSTAYMQLSSLTFEDSAVYFCAISLGDGYYVYAMVCWGQGTAVTVSS
VL: DIVMTQSQKFMSTSVGDRVSVTCKASQNVVTNVVWYQQKPGQSPKPLIYSASYRYSGVPDRFTGSGSGTDFTLTISNVQSEDLAEYCCQQYHSYPFTFGSGTKLEVK
With B15, in assay [6], the 50% effective concentration (EC50 (read off the curve)) was 0.03 µg/mL. Further, in assay [3], the Kd is 0.68 nM. Also, the IC50 (read off the curve) in assay [7] is 0.1 µg/mL.

B16: recombinantly expressed 1F2 IgM (antibody, V domains shown)
VH: QVHLQQSGPEVARPGASVKLSCKASGYTFTDYYLNWVKQRPRQGLEWIGQIHPGSTNTYYNEKFKGKATLTADKSSSTAYMQLSSLTFEDSAVYFCAISLGDGYYVYAMVCWGQGTAVTVSS
VL: DIVMTQSQKFMSTSVGDRVSVTCKASQNVVTNVVWYQQKPGQSPKPLIYSASYRYSGVPDRFTGSGSGTDFTLTISNVQSEDLAEYCCQQYHSYPFTFGSGTKLEVK
In the case of B16, the Kd in assay [3] was 0.65 nM.

B17: recombinantly expressed 1F2 IgG1 (antibody, V domains shown)
VH: QVHLQQSGPEVARPGASVKLSCKASGYTFTDYYLNWVKQRPRQGLEWIGQIHPGSTNTYYNEKFKGKATLTADKSSSTAYMQLSSLTFEDSAVYFCAISLGDGYYVYAMVCWGQGTAVTVSS
VL: DIVMTQSQKFMSTSVGDRVSVTCKASQNVVTNVVWYQQKPGQSPKPLIYSASYRYSGVPDRFTGSGSGTDFTLTISNVQSEDLAEYCCQQYHSYPFTFGSGTKLEVK
As to B17, in assay [6], the EC50 (read off the curve) turned out to be 0.05 µg/mL. Further, the Kd in assay [3] was 1.05 nM.

B18: monoclonal antibody 1F4 (hybridoma-produced, murine IgG2a) (antibody, V domains shown)
VH: QVHLQQSGSELRSPGSSVKLSCKDFDSEVFPIVYMRWIRQKPGHGFEWIGDILPSFGRTIYGEKFEDKATLDADTVSNTAYLELNSLTSEDSAIYYCARGDHGNWLAYWGQGTLVTVSA
VL: DIVMTQSHKFMSTSVGDRVTITCKASQDVSTNVAWYQQKPGQSPKLLIYWASTRHTGVPNRFTGIISGTDYTLTISSVQAEDRALYYCQQHYSAPWTFGGGTKLEIK
As for B18, the EC50 (read off the curve) in assay [8] stood at 0.05 µg/mL. The binding result in assay [4] was “binds”. For the same molecule, the IC50 (read off the curve) in assay [5] is 4 µg/mL.

The term EC50 (read off the curve) denotes the midpoint of the concentration-response curve. One may read the Kd as the constant that tells how readily two partners part at equilibrium.
